This experiment addresses T1, His-ABI5 (Arabidopsis, UniProt Q9SJN0 1-442).
T1 construct: ABI5, Arabidopsis, AT2G36270; CDS ligated to pET28a; source: E. coli, purified (Ni-NTA agarose)
T1 sequence (looked up): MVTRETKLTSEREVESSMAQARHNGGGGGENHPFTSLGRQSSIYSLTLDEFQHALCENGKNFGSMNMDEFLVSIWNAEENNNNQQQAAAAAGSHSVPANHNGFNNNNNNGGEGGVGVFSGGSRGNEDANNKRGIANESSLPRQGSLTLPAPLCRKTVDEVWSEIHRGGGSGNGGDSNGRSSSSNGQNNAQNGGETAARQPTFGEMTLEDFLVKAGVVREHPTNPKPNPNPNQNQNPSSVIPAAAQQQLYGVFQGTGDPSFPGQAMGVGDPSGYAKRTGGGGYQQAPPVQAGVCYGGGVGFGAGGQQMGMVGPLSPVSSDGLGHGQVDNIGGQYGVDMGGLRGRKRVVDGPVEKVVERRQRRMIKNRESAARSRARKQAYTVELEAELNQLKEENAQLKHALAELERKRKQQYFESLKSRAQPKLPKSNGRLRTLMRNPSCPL
In words: pull-down; His-ABI5 purified with Ni-NTA agarose incubated with dialyzed MBP fused proteins 1h at 4°C; column buffer 20 mM Tris-HCl pH 7.4, 0.2 M NaCl, 1 mM EDTA; blots with anti-His and anti-MBP. Particulars: both partners purified.

B1: MBP-ENAP1 (natural protein, Arabidopsis, UniProt Q8VZI9 1-249, looked up)
chain: METTPETQSKTHRLPAGREDWWSEDATATLIEAWGDRYVNLNRGNLRQNDWKEVADAVNSSHGNGRPKTDVQCKNRIDTLKKKYKTEKAKPLSNWCFFDRLDFLIGPVMKKSSGAVVKSALMNPNLNPTGSKSTGSSLDDDDDDDDDDEEDDDDAGDWGFVVRKHRKVEDVDSSEGSAFRELARSILKLGEAFERIEGKKQQMMIELEKQRMEVAKELELQRMNMLMEMQLELEKSKLGKRRAASGKKL
notes: ENAP1, Arabidopsis, At3G11100; CDS ligated to pVP13 (Gateway vector, His tag removed); source: E. coli, purified (amylose resin, eluted with maltose, dialyzed)
As to B1, the binding result is reported as “binds”.

Values taken from publication PMC8673607, “ENAP1 retrains seed germination via H3K9 acetylation mediated positive feedback regulation of ABI5” (PLoS Genetics, 2021).
